B1: MYL5 (parent)
chain: FQFASIDVAGNLDYKALSYVITHG
B2: TRIM9 (parent)
chain: CVQCKMPVCYQCLEEGKHSSHEVK

Variants of: B1
Experiment: protein stability index of a GFP-peptide fusion (GPS, HEK-293T) (PSI 1-6); higher = more stable
Settings: c terminus: a fixed tail appended
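Also: lentivirally expressed fusions sorted by FACS into six bins by GFP to DsRed ratio, PSI derived from sequencing read proportions per bin multiplied by bin number.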

Variant | protein stability index
Q2T | 2.75
Q2H | 2.06
Q2L | 2.78
Q2F | 2.36
Q2V | 3.19
Q2E | 4.45
Q2P | 3.25
Q2A | 1.56
Q2N | 3.37
Q2C | 3.59
Q2D | 4.24
Q2R | 4.64
Q2M | 2.75
Q2K | 2.89
Q2G | 3.54
S5D | 2.43
S5A | 3.09
S5F | 3.77
S5I | 4.16
S5C | 1.36
A4P | 2.19
A4V | 1.99

Variant | protein stability index
A4D | 1.9
A4Q | 3.96
A4E | 2.51
A4S | 2.84
A4H | 4.96
A4N | 2.56
A4T | 2.81
A4L | 4.51
A4F | 2.42
F3M | 2.36
F3N | 1.36
F3A | 2.17
F3P | 2.84
F3E | 1.56
F3K | 1.43
F3V | 2.75
F3I | 2.29
F3G | 3
F3R | 1.75
F3S | 1.93
F3Q | 2.32
F3D | 1.34

Variant | protein stability index
F3C | 2.41
F3H | 2.11
F3T | 1.22
F3Y | 2.59
F1A | 1.63
F1G | 2.09
F1Y | 2.68
F1C | 3.5
F1K | 1.27
F1P | 2.79
F1W | 3.55
F1D | 1.43
F1H | 1.79
F1T | 1.55
F1S | 1.18
F1Q | 2.23
F1V | 3.25
F1I | 3.26
F1E | 1.23
F1L | 1.89
F1R | 1.67
F1N | 1.61

Variants of: B2
Experiment: as above
Settings: c terminus: a fixed tail appended

Variant | protein stability index
K24I | 2.95
K24P | 3.62
K24G | 3.19
K24M | 3.68
K24S | 3.71
K24C | 4.97
K24H | 3.92
K24Q | 3.96
K24E | 4.59
K24Y | 3.41
K24F | 2.85
K24A | 4.28
K24T | 3.7
K24V | 3.8
K24R | 3.46
K24L | 3.8
K24D | 4.73
K24W | 2.88
K24N | 3.89
V23C | 4.65
V23Y | 3.46
V23K | 3.68
V23D | 4.44
V23H | 3.32
V23R | 3.24
V23A | 4.37

Variant | protein stability index
V23N | 3.98
V23S | 3.37
V23Q | 3.85
V23M | 4
V23I | 3.7
V23G | 3.84
V23P | 4.24
V23W | 3.38
V23F | 3.65
V23E | 4.28
V23T | 3.84
V23L | 3.16
S19T | 4.25
S19Y | 3.1
S19N | 4.38
S19V | 3.86
S19R | 3.73
S19W | 3.35
S19P | 4.17
S19Q | 4.51
H21L | 3.87
H21C | 4.1
H21G | 4.16
H21R | 3.36
H21V | 4.05
H21S | 3.54

Variant | protein stability index
H21Q | 4.16
H21Y | 3.14
H21F | 2.88
H21E | 4.57
H21N | 3.75
H21K | 3.76
H21D | 3.88
H21I | 3.66
H21P | 4.08
H21W | 2.96
H21A | 3.15
H21T | 4.47
H21M | 3.7
E22F | 3.56
E22R | 3.12
E22S | 3.68
E22T | 4
E22V | 4.17
E22W | 3.11
E22M | 3.65
E22G | 3.32
E22I | 3.8
E22A | 3.57
E22H | 3.79
E22Y | 3.28
E22P | 3.33

Variant | protein stability index
E22Q | 2.73
E22N | 3.67
E22C | 4.27
E22D | 3.29
E22L | 3.74
E22K | 4.31
S20V | 3.75
S20N | 3.69
S20K | 4.26
S20C | 4.32
S20I | 2.9
S20Q | 4.29
S20H | 4.3
S20L | 4.43
S20T | 4.07
S20A | 3.68
S20E | 3.98
S20M | 4
S20D | 4.3
S20P | 4.13
S20F | 2.59
S20R | 4.38
S20Y | 3.24

Reference: the supplement of paper PMC10567573
